According to the DeepSol protein solubility set:

experiment: soluble on expression in E. coli; label from the status in PepcDB or PDB records

| Sequence | soluble on expression in E. coli |
| --- | --- |
| MINQDFILSQVVGGSLDAVAREMSATVTRTARSPLFNEAHDFTTGVFDLSGKKSRLVAQAPGCTLHLYAVVGAVDHLLDAFRYDLHPGDILLVNDPYHGGSHSLDWTIVMPVFYNRKPILLPAVRSHMADNGGPVAGGYNPRSKDIWHDGLRIPPLKIYERGEKRRDVFDLIVANNRLSHWLEGDLNAMIGACKVAASRIQTMLDKYGAEKVITAIDNRIQYTENRVRDEISSWPDGTYVGETFADHDFQGNRDIKVRATVTVKGSDLHIDFTGSSPQVKGFINSPLSNTTSFAFVGISTCCDEDIPINEGYMNPVTVTAPIGTVVNPQLPAPCGHATACVGAEIAEAVLQAISQCAPKRVGVNAHKLPLAYSHGKYDDGKPWVNLNFYGYTGGAGAAYETDGWGLYPPVMTGVILPSIEMTEVQYPSRVLKHEYTSDFTGAGRWRGTPGLDVQIQHLKESRTSVMMAGGRNTTKGFCGAGDSPSNKVIVGYGTDEAREIDETAFEVKMPVGGIIQFYRAGGGGWGNPLEREPEKVLDD | not soluble |
| LSNGQGSRVLHVVQTLYPFSSVTEEELNFEKGETMEVIEKPENDPEWWKCKNARGQVGLVPKNYVVVLSDGPALHPAH | soluble |
| GSGMKETAAAKFGERQHMDSPDLGTDDDDKAMACSAGPSGFFTRLGRLIKEKAKSDVEKVFSGFSKTRENLAVIDELLLFWNLAETDRVLDELEEALLVSDFGPKITVRIVERLREDIMSGKLKSGSEIKDALKESVLEMLAKKNSKTELQLGFRKPAVIMIVGVNGGGKTTSLGKLAHRLKNEGTKVLMAAGDTFRAAASDQLEIWAERTGCEIVVAEGDKAKAATVLSKAVKRGKEEGYDVVLCDTSGRLHTNYSLMEELIACKKAVGKIVSGAPNEILLVLDGNTGLNMLPQAREFNEVVGITGLILTKLDGSARGGCVVSVVEELGIPVKFIGVGEAVEDLQPFDPEAFVNAIFS | soluble |
| MKREDLLRHLAETEVWDMIVIGGGATGLGTAVEAAGRGYRTLLLEQGDFAQGTSSRSTKLIHGGVRYLQQGNLTLVLEALRERGLLIRNAPHLVHNLSFVVPLYDWWEGPFYGIGLKLYDVLAGKLGLGPSRLLSREETLGHIPTVEPHGLRGGVIYHDGQFDDSRLAISLALTLADLGGVALNHFPVTGIISRDGLVAGVEARDRETGGAFRIMGRAVINAAGPFVDGVRRLADPAARDLIAPSQGVHLVLDGSFLPGDSAIMVPHTDDGRVLFAVPWHGRTVVGTTDTPIPAAGLEPRPLPEEIDFLLSHAARYLTRHPERRDVLSTFAGIRPLVRSDSGGDTASLSRDHTLLVEGSGLVTIAGGKWTTYRKMGEDTVTAAAQVAGLDHRPSVTETLRIHGWQEDATEGPLQVYGSDAAALEQLLRENAAWREPLHPALPYCAGEVVWGVRHEWARTVEDVLARRTRALLLDARAAVAAAPRVAELMARELGRDSDWQAAQVAAFTHLARGYLPELEHHHHHH | not soluble |
| MSEKEIWDKVLEIAQERISNTSYQTFIKDTQLYSLKNDEAIILVSLPFNASWLNQRYSEIMQAIIYDVIGYEVKPHFISEDELASYNNVNTQEVQEPQVQHSSIDDKTWGKEQFNMHNTFDTFVIGPGNRFPHAASLAVAEAPAEAYNPLFIYGGVGLGKTHLMHAIGHHVLSNKPNAKVIYTSSEKFTNEFIKSIRDNETEAFREKYRKIDVLLIDDIQFIQNKEQTQEEFFHTFNELHQNNKQIVISSDRPPKEIAKLEDRLRSRFEWGLIVDITPPDYETRMAILQKKIEEENLDIPPEALNYIANQIQSNIRELEGALTRLLAYSKLQGKPITTELTAEALKDIIQSPKSKKITIQDIQKVVGQYYSVRIEDFSAKKRTKSIAYPRQIAMYLSRELTDFSLPKIGEEFGGRDHTTVIHAHEKIANDIKSDPTFKQEVENLEKEIRNQLEHHHHHH | not soluble |
| MKPANLIHPSVIMSKKYNKMGEGCIICASNIITVNVTLGDHIIVNLDCTIGHDVVINDYVTIYPSVNVSGNCNIGECVELGTGTQVIQGNNIGDRTIVGAGSVVIRNIEGDKVAVGVPTKVIKLEHHHHHH | not soluble |
| AWVDQTPRTATKETGESLTINCVLRDASFELKDTGWYRTKLGSTNEQSISIGGRYVETVNKGSKSFSLRISDLRVEDSGTYKCQAFYSLLLRDYNYSLLFRGEKGAGTALTVKAAA | soluble |
| MKMKKKKRKMFDVFEHVLNQIVGNGVLLLRRIVIDRSKQHKHFHLIMTYKCIFVVAQHTLVDRLESDNNGEQKFQKLCFI | not soluble |
| MMEDDGQPRTLYVGNLSRDVTEVLILQLFSQIGPCKSCKMITEHTSNDPYCFVEFYEHRDAAAALAAMNGRKILGKEVKVNWATTPSSQK | soluble |
| MGSDKIHHHHHHMERLFESFIKKLAITNTSFVRSLMNEIEWEARLIGIKGARGVGKTTLLLQYIKLNLPMDKTVLYASVDNIWFSEHKLYDLASDFVKRGGKYLFLDEVHKYPNWSQELKNIYDDLPELHVVFTGSSLLEILNAKSDLSRRAIVYEMQGFSFREYLNWNEKLSLPILTLNNILDNHLALSVGIVDKVKVLKHFSDYLKHGYYPYYNELPSLYYSRINEVVNLIVELEIPQLRGVDISYTTKIKQLLYIIAESAPFIPNVSKLSERIGISRNSLLAYLDALHDSCLTMNLQKEGSGISRLQKPDKLFLENPNLMYALSASQIDIGNVRETFFANQLRYCHKINVSKESDFFIDGRYTFEVGGRHKGKQQINGLSDAYIVADDIEYGINNKIPLWLFGFLY | not soluble |
| MSLKLVFYGAGNMAHAIFTGIVNSKVIDSNDIYLTNRSNEVALKEYAEKLGVNYSYDDEALLKAADYVFLGTKPYDFESLAERIKPFITDKNKFISIMAGLPISYIREKLEADNPIARIMPNTNAHVGHSVTGISFSSNFGPNSKDEVDELINAFGSAIEVPEDNLHQVTAITGSGPAFLYHVFEQYVTAGTRLGLEKAQVEESIRNLIIGTSKMIERSELSMEQLRKNITSKGGTTQAGLNALSQHDLESVFEDCLRAAVDRSVELSSQDEGHHHHHH | soluble |
| NVKQQFFPPSNTPMFYVDMWMPEGTDIRQTIKQAEKVESYIRQQDDIDFVSVSIGQGLQRFALTYQPEKSYEAYAQFQVRTTDRDNMFKLLHKLDDNLAKTFDEPTFQFKLMEFGPSPASKIEARITGPDPKVLRELAVQVEDILHTDPGARNIRHDWRERTKELVPVFNESKARRLGISKEDLSSTLQMAFGGSTFGVLRDGTHTLPIMMRLPEAERVDFESLQNVKIWSPSLQTYIPVDQIIDGVELDWSEPLIQRRDRKRTLTVLADHDVLSDDTAASLFARVQPKVMALHIPEGYEITWGGEYESSKDAQE | not soluble |
| MSLHILHIASSPRGERSVSLKLASRYLETLTSLHPESTVDVLDVWTIDLLPFDGPALEAKYADLQGVQMSDEQQAVWKQIHALGERFHRADVILFSVPMWNFGVPYRLKHLIDSVSQRGVLFEFDAQGMRGLLKGKNVVVFASRGVALGEDFPTEAYDHQVAYLKTWARMVGIPTIDAVLSEATLADPATAEANFTAALAEASKLAAAVQEGHHHHHH | soluble |
| MHTMHIPSGDVLIPKPKLITEETDPLHIIKTRQKTHGRPVTIAGPMVRYSKLPFRQLCREYNVDIVYSPMILAREYVRNEHARISDLSTNNEDTPLIVQVGVNNVADLLKFVEMVAPYCDGIGINCGCPIKEQIREGIGCALIYNSDLLCSMVHAVKDKYGDKLRIETKIRIHEALDETVELCRKLCDAGVDWITIHGRTRRTRSSQPANLDAIKYIIENISDKNVPVIANGDCFKLSDLERITKYTGAHGVMAVRGLLSNPALFAGYTTCPWGCIEKFCYWALEFGGLPFQLAQHHLYCMLENMELKKSLLKKMMNLKNYISLIDWFNKTFEFKRYGEDGFGMGVEIPYKANSCVQRSASVVERQE | soluble |
| SNAMYKEGACLYRNPLRSKSDVKDWRMEGGGQISFDDHSLHLSHVQDEAHFVFWCPETFPDGIIVTWDFSPIEQPGLCMLFFAAAGIRGEDLFDPSLRKRTGTYPEYHSGDINALHLSYFRRKYAEERAFRTCNLRKSRGFHLAAMGADPLPSPDDADSPYRMKLIKDKGYVHFSINGLPILEWMDDGSTYGPVLTKGKIGFRQMAPMKAVYRDFAVHQAVRR | soluble |
| MSLGRVTITAVAREAGVSAITVSRYFNQPEQVSPELRERIAAVVNALGYVPNLVAGGLASARSRVVAMVIPNISGPIFANTIQGFSDTLSQHGFQLLLASSYFSAEQEESAVRAFLGWSPAALVLTSRFHSPATEKMIEQTDVPVIETWDHQPERSPIQIGFSHYDVGVTAARYLYDKGYRRIAFVQNSIAGDFSALERRDGYIATLEGLGIKPWVFVPDAGRAPFEAGKQAMETLMSQTPRPDAIFFANDNLAAGALLASQRAGLHIPKDCAVMGFGDYAFAEMMLPSLTTIKPPALEIGVLAATRVLESLGVLPVEGDIQRLNLLECRLVERESTEGHHHHHH | soluble |
| MYTHNSSDSIDCNIQSLYRGPQPGRYVRPTGKAVKQVKMEPYSPYSWGDKPYHSLNYYLKQTFGEKIYKLALDGAMTCPNRDGTLGTGGCIFCSGGGSGDFAEPQHASVTEQIEAAKARVSAKIKNGRYIAYFQSYTNTYAPVDYLEALFREAVSHPDIAALSIGTRPDCLPPQVIRLLKEINKEKPVWIELGLQTIHESTAELIRRGYELPCFIDAVRRLKEAGLTVIVHVILGLPGETEDMMLETIRFLANHTPPVDGIKLQLLHVLKGTKLAALYEAAPFPVMTMEEYIDLILKCIRLLPPHIVIHRLSGDGPKKLLIAPEWSGNKRLFLNSLTRALRETGAYQGEWHRPRQP | not soluble |
| ISLKYTAARLHEKGVLLEIEDLQVNQFKNVIFEISPTEEVGDFEVKAKFMGVQMETFMLHYQDLLQLQYEGVAVMKLFDRAKVNVNLLIFLLNKKFYGK | soluble |
| MAHHHHHHMSHTFTDPLVDLASVSFQYPHGGGGSAGGIRDVSVRVNGGDRVLVVGHNGSGKSTLLSVIAGRRKASSGRATVLGSDAFDDTRLQQHVTLIGRPWPTEAFFATTVDQVTSQAPLPERKRSVADALHLDLGRAVSNMSSGERRRVQILHGLLQKSFVYLLDECSTDIDIAERMTVLDLVRSECVVGDSCCLYATHIFDGVSDWATHLLLMQGGMVVDFKRVSDLNAPLEVFVCHFLTRRHRGLFDHTSKRTPVKDAYNDDWKGGGTVTALPLEKEAVIVCDRLQYRNIFRNLSFTVYRGDRVLLCGCNGAGKSTLLKMMGGKQFFNNCNGSLRILGKSCYDDMTLNGLVAFGGEWWDTAPPGEMHVHEMLQLQTPRAEWLCKVLGVDLSWDVRHISTGEQKHVQLLLHLLEDKPVILLDEATSDLDLDQRQELLSFLYSESVNRGVTVVYATHIFGGLENWPTAVMMLDRTTQGLHAMWCGSDVKWAEVTRELIALK | not soluble |
| GPGSMSNNMLALPKVLLMGLRKSGKSSIQKVVFEGMQPHDSATLATTVQPEKSTVHSNDFVNFEVWDFPGQNDPFDSSNASRYDVNQLLENCGAIVYVLDCRELIDDARARLLDTISAAYRHNPELCVEVFIHKVDALSEDHQADLLASLQRRVEEEAKPLLENVQPLRLNFNLTSIYDHSVFQAFSLVVQKLIKSKTPYITELLQMLNSNSNIDLSYLFLSHSKIYVAVDERNRLKSRTYDLCSDAIEVVVKMSGIYMRQRDGVAGGVKDAFTDSVHSLAASATSRTIISSSLGSADGCASDVSELYRGANAVIQLSNEDCIYVRELPSSLTLVLMMKQTHLENRALIDRNVDIFYKAAFDIFSTSAS | not soluble |
| MFSAPLENTMLCNMGGSHEKARARENERMRERERGKEQRTYFATGSLARCQAGSVRRAPGTRRHPGSSTVQGFGTVVSLEANKEMKKEETFFFASLFLYRLGGPLTGTVGYANKTTGR | not soluble |
